± gives the uncertainty stated by the source.
Assay: self-splicing fitness, log relative to wild type (ln ratio); higher = more splicing; Tetrahymena group I intron in knt gene, E. coli kanamycin selection, DiMSum; sequences stand for … in CUCUCU…GGAGGGAAAAGUUAUCAGGCAUGCACCUGGUAGCUAGUCUUUAAACCAAUAGAUUGCAUCGGUUUAAAAGGCAAGACCGUCAAAUUGCGGGAAAGGGGUCAACAGCCGUUCAGUACCAAGUCUCAGGGGAAACUUUGAGAUGGCCUUGCAAAGGGUAUGGUAAUAAGCUGACGGACAUGGUCCUAACCACGCAGCCAAGUCCUAAGUCAACAGAUCUUCUGUUGAUAUGGAUGCAGUUCACAGACUAAAUGUCGGUCGGGGAAGAUGUAUUCUUCUCAUAAGAUAUAGUCGGACCUCUCCUUAAUGGGAGCUAGCGGAUGAAGUGAUGCAACACUGGAGCCGCUGGGAACUAAUUUGUAUGCGAAAGUAUAUUGAUUAGUUUUGGAGUACUCGUGGUCG
In short: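 Colonies from six replicate transformations of E. coli BL21(DE3) were pooled and amplicon-sequenced on an Illumina HiSeq 2500. The library placed an intron with all eight P1ex-region nucleotides randomised inside the knt kanamycin-resistance gene on pET-22b(+), and cells grew overnight at 37°C or 30°C on LB agar with or without 25 μg/mL kanamycin (plus 100 μg/mL carbenicillin, 50 μM IPTG, 0.2% rhamnose). Fitness is the DiMSum error-weighted combination of wild-type-normalised replicate fold changes, kanamycin versus none.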

| Sequence | self-splicing fitness (ln) (30 °C) | self-splicing fitness (ln) (37 °C) |
| --- | --- | --- |
| UCAAAGCAAUAUUACGCACA | -0.843 ± 0.079 | -0.191 ± 0.082 |
| UCAAAGCAAUAUUACGCAGA | -3.13 ± 0.21 | -2.64 ± 0.16 |
| UCAAAGCAAUAUUACGCCUG | -0.562 ± 0.066 | -0.293 ± 0.091 |
| UCAAAGCAAUAUUACGCUAC | -2.96 ± 0.46 | -2.22 ± 0.37 |
| UCAAAGCAAUAUUACGGAUC | -3.94 ± 0.41 | -3.23 ± 0.4 |
| UCAAAGCAAUAUUACGGCCG | -0.434 ± 0.1 | 0.158 ± 0.17 |
| UCAAAGCAAUAUUACGGUAC | -3.28 ± 0.16 | -2.71 ± 0.22 |
| UCAAAGCAAUAUUACGGUUG | -1.38 ± 0.086 | -0.732 ± 0.12 |
| UCAAAGCAAUAUUACGUAAA | -1.73 ± 0.13 | -1.94 ± 0.21 |
| UCAAAGCAAUAUUACGUACA | -1.2 ± 0.14 | -0.562 ± 0.16 |
| UCAAAGCAAUAUUACGUAUU | -3.03 ± 0.14 | -2.13 ± 0.17 |
| UCAAAGCAAUAUUACGUCAG | -1.75 ± 0.086 | -0.944 ± 0.097 |
| UCAAAGCAAUAUUACGUCCG | -0.781 ± 0.12 | -0.625 ± 0.16 |
| UCAAAGCAAUAUUACGUCGA | -0.83 ± 0.077 | -0.792 ± 0.081 |
| UCAAAGCAAUAUUACGUGCC | -2.35 ± 0.18 | -1.57 ± 0.39 |
| UCAAAGCAAUAUUACGUUAA | -3.54 ± 0.19 | -0.92 ± 0.12 |
| UCACAGCAAUAUUACGAAUG | -1.77 ± 0.097 | -1.61 ± 0.14 |
| UCACAGCAAUAUUACGAGAA | -3.16 ± 0.34 | -1.68 ± 0.24 |
| UCACAGCAAUAUUACGAGAU | -4.39 ± 0.25 | -2.85 ± 0.24 |
| UCACAGCAAUAUUACGAGUA | -2.02 ± 0.1 | -1.52 ± 0.085 |
| UCACAGCAAUAUUACGAUAU | -2.96 ± 0.22 | -2.67 ± 0.19 |
| UCACAGCAAUAUUACGAUUG | -2.97 ± 0.12 | -1.34 ± 0.11 |
| UCACAGCAAUAUUACGCCUG | -1.21 ± 0.11 | -0.438 ± 0.12 |
| UCACAGCAAUAUUACGCGAG | -1.32 ± 0.063 | -0.0838 ± 0.077 |
| UCACAGCAAUAUUACGCGUA | -1.09 ± 0.086 | -0.297 ± 0.082 |
| UCACAGCAAUAUUACGCGUU | -4 ± 0.21 | -2.13 ± 0.17 |

| Sequence | self-splicing fitness (ln) (30 °C) | self-splicing fitness (ln) (37 °C) |
| --- | --- | --- |
| UCACAGCAAUAUUACGCUUU | -3.36 ± 0.15 | -3.6 ± 0.27 |
| UCACAGCAAUAUUACGGAUA | -2.87 ± 0.16 | -1.47 ± 0.12 |
| UCACAGCAAUAUUACGGGUA | -1.93 ± 0.13 | -0.772 ± 0.1 |
| UCACAGCAAUAUUACGGUCA | -0.0483 ± 0.085 | 0.318 ± 0.099 |
| UCACAGCAAUAUUACGUAGG | -1.07 ± 0.055 | -1.05 ± 0.082 |
| UCACAGCAAUAUUACGUAUU | -3.5 ± 0.15 | -2.54 ± 0.14 |
| UCACAGCAAUAUUACGUCAA | -2.7 ± 0.17 | -1.46 ± 0.13 |
| UCACAGCAAUAUUACGUCCU | -3.15 ± 0.19 | -2.27 ± 0.15 |
| UCACAGCAAUAUUACGUCUU | -1.68 ± 0.12 | -2.4 ± 0.16 |
| UCACAGCAAUAUUACGUGAG | -0.886 ± 0.03 | -0.396 ± 0.052 |
| UCACAGCAAUAUUACGUGCC | -1.42 ± 0.11 | 0.00553 ± 0.12 |
| UCAGAGCAAUAUUACGACUU | -2.45 ± 0.19 | -3.12 ± 0.38 |
| UCAGAGCAAUAUUACGCAGA | -2.96 ± 0.27 | -1.47 ± 0.21 |
| UCAGAGCAAUAUUACGCCAU |  | -1.91 ± 0.29 |
| UCAGAGCAAUAUUACGGCUA | -2.46 ± 0.28 | -2.11 ± 0.24 |
| UCAGAGCAAUAUUACGGGCG | -2.45 ± 0.17 | -2 ± 0.25 |
| UCAGAGCAAUAUUACGGGGG | -2.66 ± 0.23 | -3.15 ± 0.35 |
| UCAGAGCAAUAUUACGGGGU | -3.35 ± 0.23 | -2.88 ± 0.27 |
| UCAGAGCAAUAUUACGUAGU | -3.58 ± 0.43 | -2.88 ± 0.35 |
| UCAGAGCAAUAUUACGUGUU | -4.84 ± 0.27 | -2.27 ± 0.17 |
| UCAUAGCAAUAUUACGAACU | -2.36 ± 0.33 | -2.08 ± 0.26 |
| UCAUAGCAAUAUUACGACUA | -2.82 ± 0.29 | -1.78 ± 0.24 |
| UCAUAGCAAUAUUACGAGCA | -0.736 ± 0.2 | -1.11 ± 0.23 |
| UCAUAGCAAUAUUACGCAAA | -2.54 ± 0.25 | -1.72 ± 0.3 |
| UCAUAGCAAUAUUACGCCGA | -0.67 ± 0.18 | 0.277 ± 0.18 |
| UCAUAGCAAUAUUACGCCGG | -1.25 ± 0.12 | -0.72 ± 0.12 |

| Sequence | self-splicing fitness (ln) (30 °C) | self-splicing fitness (ln) (37 °C) |
| --- | --- | --- |
| UCAUAGCAAUAUUACGCGAU | -1.9 ± 0.22 |  |
| UCAUAGCAAUAUUACGCUGC | -3.13 ± 0.31 | -2.52 ± 0.41 |
| UCAUAGCAAUAUUACGGAAC | -4.02 ± 0.47 |  |
| UCAUAGCAAUAUUACGGCCA |  | -0.442 ± 0.46 |
| UCAUAGCAAUAUUACGGGUG | -1.94 ± 0.093 | -0.795 ± 0.085 |
| UCAUAGCAAUAUUACGGGUU | -4.83 ± 0.36 | -3.34 ± 0.25 |
| UCAUAGCAAUAUUACGGUCG | -1.14 ± 0.083 | -0.0517 ± 0.1 |
| UCAUAGCAAUAUUACGUACU | -4.14 ± 0.19 | -2.96 ± 0.19 |
| UCAUAGCAAUAUUACGUCAG | -2.96 ± 0.18 | -1.36 ± 0.15 |
| UCAUAGCAAUAUUACGUCCA | -1.07 ± 0.16 | -0.442 ± 0.17 |
| UCAUAGCAAUAUUACGUCCC | -2.19 ± 0.49 |  |
| UCAUAGCAAUAUUACGUCGC | -2.62 ± 0.3 | -2.78 ± 0.34 |
| UCCAAGCAAUAUUACGAAAG | -2.45 ± 0.19 | -3.23 ± 0.35 |
| UCCAAGCAAUAUUACGACAG | -3.81 ± 0.35 | -1.47 ± 0.26 |
| UCCAAGCAAUAUUACGACCA | -1.63 ± 0.16 | -0.935 ± 0.17 |
| UCCAAGCAAUAUUACGAUAA | -2.01 ± 0.11 | -0.704 ± 0.11 |
| UCCAAGCAAUAUUACGCAAC | -4.2 ± 0.37 | -3.04 ± 0.31 |
| UCCAAGCAAUAUUACGCAGC | -2.73 ± 0.21 | -2.89 ± 0.32 |
| UCCAAGCAAUAUUACGCCAA | -2.68 ± 0.21 | -0.487 ± 0.22 |
| UCCAAGCAAUAUUACGCCGG | -1.53 ± 0.11 | -0.578 ± 0.14 |
| UCCAAGCAAUAUUACGCGCA | 0.131 ± 0.064 | 0.306 ± 0.079 |
| UCCAAGCAAUAUUACGCGCU | -2.67 ± 0.21 | -1.52 ± 0.23 |
| UCCAAGCAAUAUUACGGAUA | -2.57 ± 0.13 | -1.22 ± 0.089 |
| UCCAAGCAAUAUUACGGGAG | -2.57 ± 0.16 | -2.9 ± 0.35 |

— the supplement of paper PMC7877785
